Experimental data as given in IntAct's records for PubMed 21847091.

B1: Abscisic acid receptor PYR1 (Arabidopsis thaliana (Mouse-ear cress)), O49686 (parent)
chain: MPSELTPEERSELKNSIAEFHTYQLDPGSCSSLHAQRIHAPPELVWSIVRRFDKPQTYKHFIKSCSVEQNFEMRVGCTRDVIVISGLPANTSTERLDILDDERRVTGFSIIGGEHRLTNYKSVTTVHRFEKENRIWTVVLESYVVDMPEGNSEDDTRMFADTVVKLNLQKLATVAEAMARNSGDGSGSQVT

Variants of: B1
Conditions: with HAB1, Q9CAJ0
HAB1, Q9CAJ0, sequence (Q9CAJ0 whole entry): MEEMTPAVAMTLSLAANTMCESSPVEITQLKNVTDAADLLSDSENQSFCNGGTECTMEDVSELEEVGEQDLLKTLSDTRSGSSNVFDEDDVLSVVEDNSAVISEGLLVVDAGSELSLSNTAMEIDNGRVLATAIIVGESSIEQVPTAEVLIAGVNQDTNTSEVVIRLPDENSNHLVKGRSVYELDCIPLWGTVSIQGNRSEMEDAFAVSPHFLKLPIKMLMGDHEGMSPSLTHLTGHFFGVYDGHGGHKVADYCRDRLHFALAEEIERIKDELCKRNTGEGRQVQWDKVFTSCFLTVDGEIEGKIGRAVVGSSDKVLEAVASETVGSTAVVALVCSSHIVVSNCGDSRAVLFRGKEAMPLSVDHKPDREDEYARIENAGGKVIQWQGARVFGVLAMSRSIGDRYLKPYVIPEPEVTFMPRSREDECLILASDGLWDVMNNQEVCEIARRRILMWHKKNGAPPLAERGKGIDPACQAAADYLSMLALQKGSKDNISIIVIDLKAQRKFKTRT

effect of a mutation on the interaction	Variant
increasing interaction	H60P
